Results: a protein production outcome set (Wang et al. 2014)

Experiment: label from the status in PepcDB records
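Further: failed if final PepcDB status was selected cloned or expressed and not failed if soluble or beyond.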

**Q.** For “NNLFVYCEIEEGIVADVSLELLTKGRSLANELNCQLEAVVAGTGLKEIEKQILPYGVDKLHVFDAEGLYPYTSLPHTSILVNLFKEEQPQICLMGATVIGRDLGPRVSSALTSGLTADCTSLEIGDHEDKKEGKVYKNLLYQIRPAFGGNIVATIVNPEHRPQMATVREGVMKKEIVSPAYQGEVIRHDVKKYVADTDYVVKVIERHVEKAKNN”, which protein production is on record?
**A.** not failed

**Q.** For “MRAFFNSSMREKLSQLKARQQKQEMPANLSIIHALRATQEGFEDDGVMRNYDLLESQFKENLTKEDRELLESPKPNLEKLQELKIRLLEKNGIFKPPKQKSQISLVFGMNALVPLGTIKTL”, which protein production is on record?
**A.** failed

**Q.** Which protein production does the source give for “MANAENNSVSTRSSELYREISQMDDEIMKLVEQINQPIGRPDFGAIEEARKKLTDKRMKLEELSKRMKEVIKEMEETPKR” here?
**A.** failed

**Q.** With “MRAFPFFRPVLAQLMKHRVAQESTRRWLDRIIQIIKYAYCQKLRRHFCQATLWKMIQLIVNGQSQLVPSPDSGTDSGTTNDARLNIRQLLEHMGLQGKRIAVERNGEIVPRSQFDQPMLASGDKLEIVVAVGGGLEHHHHHH” as the sequence, how does the protein production read?
**A.** failed

**Q.** Which protein production does the source give for “MTRPEASGPPDATRLGHLLGPHGVQGGIKLYVLGDPAQVLALKRVYVESRGWLSLRRAEGMPPNLVLYLAGVSSREGAEELRGLQVYATDAELPDLEEGTFYYHDLRGLEVYGAGGERLGTVSDVMDAGHQDLLVVDYGGGTSFVPLQAPYVEVPLAGGKPGAVHLTADAPAGLIGPEPGEEDGAAESLEHHHHHH” here?
**A.** not failed

**Q.** For “MTARPDSSGASSRHDRLQRHPTPNARNSLWRWTDAKHPLRVALNYVVIVLARISPSLHAKNWLLARIGVTVGDGVAWGLESTPDVFWPELVTVGDDAIIGYDATLLCHEFLHDEYRTGAVVVEDRAMIGAGAVVLPGVTIGADAQVAANSLVTADVPPGETVAGVPAAPTGD”, which protein production is on record?
**A.** failed

**Q.** With “MNPFTYSKPTDITAAVNLSGPATRFIAGGTNLLDLMKENVATPEHLIDITGLPLREVSETASGGLMIGALVSNADLAYHPLIEARYPLLSKAVLAGASPQLRNMASTGGNLLQRTRCYYFYDTGVPCNKREPGSGCPAREGLNRIHAILGASDECVATHPSDMCVALAALEAVVHVEGRAGRRTIEFADFHRLPGDAPQRDNQLADDELIIAVELPAQGFASHNAYLKIRDRASYAFALISVAAAIDLDGDVVRDVRLALGGVAHKPWRDKAVEALLIGKPVTREHFAAAADAMLEDAKPLEHNGFKVRLARRAIIRALSDAATGGSAL” as the sequence, how does the protein production read?
**A.** not failed

**Q.** For “DDRQEEKMIKENVYFDGNVKSLGFSQQDGESTVGVMAPGQYTFGTGAPERMTVVKGALTIKRVTDADWVTFTAGEAFEVAGNSSFDLQVEVATAYLCEFL”, which protein production is on record?
**A.** failed

**Q.** Which protein production does the source give for “MSLRAVRLHAKWDPRPEFKLGPKDIEGKLTWLGSKVWRYPEVRVEEVPEPRIEKPTEIIIKVKACGICGSDVHMAQTDEEGYILYPGLTGFPVTLGHEFSGVVVEAGPEAINRRTNKRFEIGEPVCAEEMLWCGHCRPCAEGFPNHCENLNELGFNVDGAFAEYVKVDAKYAWSLRELEGVYEGDRLFLAGSLVEPTSVAYNAVIVRGGGIRPGDNVVILGGGPIGLAAVAILKHAGASKVILSEPSEVRRNLAKELGADHVIDPTKENFVEAVLDYTNGLGAKLFLEATGVPQLVWPQIEEVIWRARGINATVAIVARADAKIPLTGEVFQVRRAQIVGSQGHSGHGTFPRVISLMASGMDMTKIISKTVSMEEIPEYIKRLQTDKSLVKVTMLNEGHHHHHH” here?
**A.** not failed

**Q.** With “MAGLLSGLPMTSALVMLFLSLEQGAVFASMAVPGALAGLAAIQATYLFYFLVTRRVSAVAGCVLALALYGATAFLMNLSGSLALSILFTLLMVALIIVATSKQTPPAAAPYVALPRWVIPMRMLTATLLLLAITASATWLGPVVSGLLAPIPVIAWPLAVFVHVQGGRYELAAIIRGNAIGAVGVLSFYLTLRYSLLQWGALLSITTAVLLAVVVTAVLARLLAKR” as the sequence, how does the protein production read?
**A.** failed

**Q.** Which protein production does the source give for “MTASPLLTAFLPLALGIIMLGLGLSLTLADFARVVKYPKPVVVGLVCQILLLPLVCFLIANGFGLESALAVGLMLLAASPGGTTANLFSHLAHGDVALNITLTAVNSLIAILTMPLLVNLSLSWFMASDQAIPLQFAKVMQVFAIVLLPVALGMLIRHFAPAFAARMEKPMKLVAALFLAFTIVLALAKDWQTVVEYAPVVGLAALLFNLLSLTVGYWVPRLLNISKRQAIAIGMEIGIHNGTLAIALALSPSLLNNATMAVPAALYSLIMFFTAAGFGWWVSRGHVAAEPKGETVN” here?
**A.** failed

**Q.** Which protein production does the source give for “MRLPFAITRFAAGAALAALGTSAFANCVANPPTQSNASFPASLAGKLAYHSYVSYGDGTSQLFIYDFAARTLTQVSKSAWGIQDPMNAVFSPDGKWLAFMGITNNAWNVFLWQVGSSSQPVNMTNSTGQTRNEDPKFSADGKSLFFKQSGDVMQATLSYTSTGPIFTSVVDITNTAPATENSMPFATPDGSAVYFATGTGAGMGLYKETIATHATFAFDTPAGLQTYYPIVRADGTVFYARWKDAASQADQIYTKVNPGDTPNQLSINDCNSNNSDPAPVNGTNYVFFSSTTAGGYQLYLGDVSTGQRWSLSQFGVNSDTTKAKLGSNYYAGGTTASTSGQTTRLLSQGMPASASSSYNSSLGAANAFDGDTANTRWDSIEGSAAGTQWLMVDLGTVRTINGVDLYWDAGAKTYAIQTSSDGVNWTSIYSTSNGIAYGHAVLSNLRGSGRYVRMYGTQRATQWGYSIDEMQVWGY” here?
**A.** failed

**Q.** Which protein production does the source give for “MHSPHDPYVRVRDAREHNLKGVDVDVPRDVLAVFTGVSGSGKSSLAFGTVYAEAQRRYFESVAPYARRLIHQIGAPKVGGITGLPPAVSLQQRRATPTSRSSVGTVTNLSNSLRMLFSRAGTYPPGAERLDSDAFSPNTAAGACPECHGLGRVHRTTEELLVPDPSLSIRDGAIAAWPGAWQGKNLRDVLDALGYDVDRPWRELPAEAREWILFTDEQPVVTVHPVREAGRIQRPYQGTYMSARRYVLKTFADSKSATLRAKAERFLNSAPCPVCGGGRLRAEALAVTVGGRTVAELAALPLAELPRLLPTEGEAAKVLAEDLISRIAPVVELGLGYLSLDRPTPTLSAGELQRLRLATQLRSGLFGVVYVLDEPSAGLHPADTEALLTVLERLKAAGNSVFVVEHHLGVMRGADWIVDVGPLAGEHGGRVLYSGPVDGLARVAESATARHLFDRSPAPVREVRTPRGAVTIGPVTRHNLRGVTVRVPLGVLTAVTGVSGSGKSTLVGEITEDLPGVDRLVSVDQRPIGRTPRSNLATYTGLFDVVRKVFAATDRARERGFGVGRFSFNVPGGRCETCQGEGFVSVELLFLPSTYAPCPDCGGARYNPETLEVAYRGRNIAEVLDLTVEGAAQFFTDTPAVARSLAALLDVGLGYLRLGQPATELSGGEAQRIKLASELQRGRRGHTLYLLDEPTTGLHPADVEVLMRQLHGLVDAGHTVVVVEHDMSVVAGADHVIDLGPGGGDAGGRIVAEGTPARVAGAAGSATAPYLARALDGGERR” here?
**A.** failed

**Q.** Which protein production does the source give for “MTAGLSAVVVGADRLGNIPDLLKGHNISITHHISGRDPSHQKKTLQLPSGTQLVILLTDFLGHNVMKTFRHAAQRGGIRVVACRRSVCSMQQALHQCGLCARSLEHHHHHH” here?
**A.** not failed

**Q.** With “MTTRRLALFDLDHTLLPLDSDYQWADFLARTGRAGDPAEARRRNDDLMERYNRGELTAEQAAEFMLGLLAAHSPVELAAWHEEFMRDVIRPSLTAQAVDVVRGHLAAGDLCALVTATNSFVTAPIARAFGVQHLIATDPEYRDGRYTGRIEGTPSFREGKVVRVNQWLAGMGLALGDFAESYFYSDSVNDVPLLEAVTRPIAANPSPGLREIAQARGWQVIDLFDHLEDAKS” as the sequence, how does the protein production read?
**A.** not failed

**Q.** Which protein production does the source give for “MHFKKSLVRSLITLAITATASTTVLANEVSGDISKFKSVGNEVNTKQKATGYIVQLKGKTAIAQAQEIGELLPTNQLVANTGNRYNAHTPAMEAYTKALENKQKQVASSIDSINILHSFKHTYNGFTAKLNAKQKAQLESHPDVIGVYEDKLETVNTANTPEFLGLTGAGGQHAMNIKGEGVIIGVIDTGVWPENPSFADDGSYSDPADLGWLGSCDTGTDEEFACNNKLIGAKYFDSSFSSQYDIQYDLGEFDSPRDADGHGSHTASTAGGNESVAAMLSGTPVGTVSGMAPRARIAAYKVCWNSDYKNPEGGDEAGCFGGDTMAAIDAAVTDGVDVINYSIGGSRTDLTVPATAAMLNATAAGVFVAVSAGNDGPDKETVGTPAPWVTSVAASTYNGTSAIVGKALDITSGTLAGSSILSVPSGFSPATVGLSGELALAEPVQACNDAPLTNGEDLAGKIALIARGSCAFTEKFLNAQNAGAVGAIIYTTEGTSPFSMGGTDPAVTITGSMISFADGQSLTASIEDGSTSVAFTDNTAAGEAVEVGNTMADFSSRGPNLNTYDIIKPDITAPGVKILAATTSAPMFGTQGETFKYLQGTSMSSPHIAGLAALFKESNSSWSPAQIKSAMMTTARQNLTKEDGTTQADPYDFGSGHVAPVSALDPGLLFDTNLADYLAFLCGQDKEAFVSGYDTSCADLATAGFSTDASQLNLASIAIAELLEPETIFRTVSNATPIASSYTATVEAPAGFDISVQTFDAAGEETEASTLDVAAEGGKASFAITVSQTETTEIEAWKFGAITWTDGAGHSVRLPLAIKAIPSVQIEVPELISGDLNRGRFRFPVKMLYSGRTSIKHAGLVAPFGTAGTVEADPAQEFEFLGAGTNYHLFHIPEGTQVARFSLSDALVTEEGSDLDLYVYRCDKWSCAQVANSLNGGSNEDVVLTNPEPRADVDVGDVYVTMIHGYSTGAATETDYTMVGWIADQAERTTRVISSRRAINGRFNYTSILTRGLPTGTTYMGAVTYFNAEGEAEGTTVLELKN” here?
**A.** failed

**Q.** Which protein production does the source give for “STPSSKAINEVSTEDSNVTVTAVVLTSGRRSIQYNGEQHVIREGELADETGKISYTAWDGFSGDLQPGQTVQLGNAGVREWDGQPELNLGDSTDP” here?
**A.** failed

**Q.** With “MIRLNVFVRVNETNREKAIEAAKELTACSLKEEGCIAYDTFESSTRRDVFMICETWQNAEVLAAHEKTAHFAQYVGIIQELAEMKLEKFEF” as the sequence, how does the protein production read?
**A.** not failed

**Q.** With “MSKKETDLGRDSIGKLLFKLAMPAIIAQLVNVLYNIVDRMFIGRLQSGDMAMAGVGVAFPIIMIVAAFSGLVGMGGAPLAAIKMGEKKKEDAEEIMTNSFSALIGLALFLTVFFFIFKEPILWAFGASDATIGYALDYLGIYLIGTIFVQIALGMNSFINTQGFAKVGMITVMVGAVINIVLDPILIFGFNMGVKGAALATIIGQCASAIWVLYFLFEKQSILRIRKKFLKPKLKILFSIMALGVSPFIMQATESLVIISMNNNLLKYGGDLAVGAMTIMSSVMQIILLPLMGLSQGAQPIISYNYGANKVYRVKKAFKLLLVSSMVFTTIMWSALMMLPDVFVKIFNSNNPQLMEITSWSIKIYFAGILLFGAQVACQQTFLALGQAKISLILALLRKIVLLIPFIYVLPMVFENKLMGVLMAEPFADIIAALSTVTCFIVFYKKHLSQGLEEEIKVNS” as the sequence, how does the protein production read?
**A.** failed

**Q.** Which protein production does the source give for “MVETLGAIAPVFLIILVGFLLRRWKVLSDGFWLPAEKLTYFITFPALLAANLAGADLRGVAWAPVAAVSVGGIFLIAALMLAARSLLARRLAIGDPAFTSVFQGAIRPNTYIGLALATVLFGPFGVTLMALCIAIVVPLVNVLAVACMVRFGHGQSASLSAMARGIATNPLILACLVGIAMNIGGLGLPPVLGPALTILGSAALPIGLLAVGAGLSGVGLRRAAPALLVSSAAKLVLLPGLTLIGALALGMDAPTTALCVLYAALPCSQSSYVLARQMGGDATLMATAITVQTLLSGLSIPVFVLALV” here?
**A.** failed

**Q.** For “MAKKTMGIHHITAIVGHPQENTDFYAGVLGLRLVKQTVNFDDPGTYHLYFGNEGGKPGTIITFFPWAGARQGVIGDGQVGVTSYVVPKGAMAFWEKRLEKFNVPYTKIERFGEQYVEFDDPHGLHLEIVEREEGEANTWTFGEVTPDVAIKGFGGATLLSEQPDKTADLLENIMGLERVGKEGDFVRYRSAGDIGNVIDLKLTPIGRGQMGAGTVHHIAWRANDDEDQLDWQRYIASHGYGVTPVRDRNYFNAIYFREHGEILFEIATDPPGFAHDETQETMGEKLMLPVQYEPHRTQIEQGLLPFEVRELD”, which protein production is on record?
**A.** not failed
